# Data published in publication PMC5634496 (Nature Communications, 2017).
# T1: GST-Ubc13 (UniProt P61088 1-152)
# T1 construct: Ubc13 (UBE2N), cDNA in pGEX-4T-1; The end of GST is read from the printed name GST-Ubc13; also called UBE2N; source: E. coli BL21(DE3/pLys), purified (glutathione sepharose beads); not shown: GST, N-terminal, kept
# T1 sequence (looked up): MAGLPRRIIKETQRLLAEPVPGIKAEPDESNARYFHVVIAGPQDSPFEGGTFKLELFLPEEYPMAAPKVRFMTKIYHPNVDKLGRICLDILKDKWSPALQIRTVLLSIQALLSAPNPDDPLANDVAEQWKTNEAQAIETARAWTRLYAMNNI
# B1: TRAF6 mutant M4 (V315A, R316A, H319A), Flag-tagged (natural protein, mouse, UniProt P70196-1 1-530, looked up)
# chain: MSLLNCENSCGSSQSSSDCCAAMAASCSAAVKDDSVSGSASTGNLSSSFMEEIQGYDVEFDPPLESKYECPICLMALREAVQTPCGHRFCKACIIKSIRDAGHKCPVDNEILLENQLFPDNFAKREILSLTVKCPNKGCLQKMELRHLEDHQVHCEFALVNCPQCQRPFQKCQVNTHIIEDCPRRQVSCVNCAVSMAYEEKEIHDQSCPLANIICEYCGTILIREQMPNHYDLDCPTAPIPCTFSVFGCHEKMQRNHLARHLQENTQLHMRLLAQAVHNVNLALRPCDAASPSRGCRPEDPNYEETIKQLESRLAAQDAQIRELTAKMETQSMYVGELKRTIRTLEDKVAEMEAQQCNGIYIWKIGNFGMHLKSQEEERPVVIHSPGFYTGRPGYKLCMRLHLQLPTAQRCANYISLFVHTMQGEYDSHLPWPFQGTIRLTILDQSEALIRQNHEEVMDAKPELLAFQRPTIPRNPKGFGYVTFMHLEALRQGTFIKDDTLLVRCEVSTRFDMGGLRKEGFQPRSTDAGV
# notes: TRAF6, mouse, mutant M4 in the CC domain; they may differ (MBP fusion, T6RZC background); also called TRAF6-M4; source: co-IP: Flag-tagged with Myc-tagged TRAF6 WT
# B2: CC-Flag (TRAF6 coiled-coil domain) (domain or fragment, mouse, UniProt P70196-1 296-400, looked up)
# chain: CRPEDPNYEETIKQLESRLVRQDHQIRELTAKMETQSMYVGELKRTIRTLEDKVAEMEAQQCNGIYIWKIGNFGMHLKSQEEERPVVIHSPGFYTGRPGYKLCMR
# notes: TRAF6 CC domain, mouse; the limits 296-400 aa are printed in the methods for the CC domain cloned with an MBP tag for E. coli; The end of Flag is read from the printed name CC-Flag; also called CC domain; CC WT; not shown: Flag, C-terminal, kept
# B3: TRAF6 mutant M5 (deletion of amino acids 313-319), Flag-tagged (natural protein, mouse, UniProt P70196-1 1-530, looked up)
# chain: MSLLNCENSCGSSQSSSDCCAAMAASCSAAVKDDSVSGSASTGNLSSSFMEEIQGYDVEFDPPLESKYECPICLMALREAVQTPCGHRFCKACIIKSIRDAGHKCPVDNEILLENQLFPDNFAKREILSLTVKCPNKGCLQKMELRHLEDHQVHCEFALVNCPQCQRPFQKCQVNTHIIEDCPRRQVSCVNCAVSMAYEEKEIHDQSCPLANIICEYCGTILIREQMPNHYDLDCPTAPIPCTFSVFGCHEKMQRNHLARHLQENTQLHMRLLAQAVHNVNLALRPCDAASPSRGCRPEDPNYEETIKQLESQIRELTAKMETQSMYVGELKRTIRTLEDKVAEMEAQQCNGIYIWKIGNFGMHLKSQEEERPVVIHSPGFYTGRPGYKLCMRLHLQLPTAQRCANYISLFVHTMQGEYDSHLPWPFQGTIRLTILDQSEALIRQNHEEVMDAKPELLAFQRPTIPRNPKGFGYVTFMHLEALRQGTFIKDDTLLVRCEVSTRFDMGGLRKEGFQPRSTDAGV
# notes: TRAF6, mouse, mutant M5: one complete heptad unit of the CC domain deleted; they may differ; also called TRAF6-M5; source: co-IP: Flag-tagged with Myc-tagged TRAF6 WT
# Legend:
# [1] = target: the molecule itself; test: native gel or EMSA; proteins purified on anti-Flag M2 magnetic beads, eluted, resolved on 10% native gel, immunoblot with Flag antibody
# [2] = target: T1, GST-Ubc13; test: pull-down; purified GST-Ubc13 (or GST) mixed with purified TRAF6 fragments and glutathione sepharose beads in lysis buffer A (20 mM Tris-HCl pH 7.4, 150 mM NaCl, 0.5% NP-40, 10% glycerol), 4 °C, 60 min; immunoblot; conditions: both partners purified
Binder,binding result [1],binding result [2]
B1,binds,–
B2,–,binds
B3,binds,–
